Measurements reported in the domain aggregation screens of Martell et al. (2025).

Test: soluble fraction after stress (log2 fold change); higher = more stays soluble; pooled small domains, quantitative proteomics
Conditions: stress: 50 degC
Method in brief: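 The measure of aggregation propensity here is the base-two logarithm of the fold change in the soluble amount of each protein after stress. A higher value means more of that protein stays in solution. Stress was applied at 50°C to pooled libraries of small protein domains, read out by high-throughput quantitative proteomics.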

Sequence	soluble fraction (log2)
HMEKYTDDLEIAAEIARLETLMEGNGRVLIRPSGTEPLVRVMIEGNDIEQITKLAEDLAALLNKRF	-0.747
HMTYTPRAGSLASQVIGFFRHNPDEELLLDDITDKFDATRGNIHTLLAEAVRFKLLARYRNDDGDYVYKPG	-2.97
HMLKHEEIQEYIKEQINSGTWKPKAKLPSLRDMSELFSTSIGTVLTAYSALEKKHIIYSIPRSGYYVLG	-1.11
HMKHMTMYEAAKIAKEVGAPKLWLTHYSPSMTRPEEFMDDVRKIFPAAYAAKDGWTMELNFDEG	-0.493
HMNTEFDVPDVVGKTLDEAEFVLKGSNLKRGLIMPVDDPSKAPGTIVRQNPEAGAGNKIRVGDVVDLWVVG	0.168
HMREVVLNRIGSVAVQRATTRTWEEWVVTLDAEGMRGKEHRDVVGHLLRAHELTSWWAQMVSVGYEQSRGQ	-0.166
HMHIDQVIRERRLALGLTQEELANKIGVSAPAVSKWEKRVSYPDITLLPALARILGTDVNTLLTFS	-0.365
HMKNVEEMILGKLKRKVSENLENASFEEIILVDAEKSVYKGIIKANYIEYYFRVNLSTGEVLSWKLK	-0.373
HMFDDEELDTFAGRQSDSYDQQEVEQFSDVLHTMRQDEVQAWWRSLTLRGISLPDELKDEVIML	-0.538
HMTSNIIIVPNVVGMTKEQATAALAAAGLNIKLSGVETTDTAAVAVKQKPSANTKVEEGSVVTVEFDLK	0.0533
HMNRREFQFSEGSSNKFWSIELRDQSFIVHYGKIGTNGQAQEKTFATADAAKKEHDKLIAEKTKKGYVEVQ	-0.392
HMRTLSAGVAGRLRADILNGLLEPGRRLGMAELTERYGAGMSPVREALSRLVGEGLVQSEGQRGFRVA	-0.0944
HMDRWTPLVVAVLSRGSHRFGELRAAIGGITPKVLTDTLRSMERDGLITRDQAPGVPPRVDYALTPLGS	-1.12
HMEKRLDYTFGLNKEQLLYLTKSIKDGDFYNVSFIDGTEKKLNRVGSTKEVHKYVNFLMTNDGIVKK	0.0518
HMIDLSELINKTGSAYTNLRPSGTAVIGDDRVDVVTEGTFVEKDRPVKVVAVEGQRVVVREVE	0.178
HMSVTYRYSYVYNGNTYSDGWSVRRAIENNENKRFGPEPSDLDHEAQKQARVTFWAEHGVEYKEQEVV	-0.879
HMRPTAWEQVSRHIDQHGSIGNTEVRKAMETENVLAASKQIKKWLEQGLLIILNPTAGTRARRYSKPNM	-0.287
HMIRMPNLIGLSVRSAEQQLVIAGLKKGIVHQVNDPRLKEVIDMQALGHKITAGSSIPKGTEVDLYIGNGT	0.146
HMTGNWRQMHKVKSKETIYGIAKEYGITVDELTKANPGMEAPGYTLKKGDYIFIPYATADANV	0.399
HMSFGESLKKLSIALNSIRKLATTDAGKKDPKVADLLGQIRDTFNSYRTHLRKNYPDLYSGIKNQL	-0.62
HMAPDDTAVWSAFIGWFRTAPDGPNPLGAYAAKLGEEGLDAAEVGRRMTVIVRLFAEKPEGAEVFYDRTYA	-0.875
HMLINIKTNSAVNVRSGPGMGFEVVNTYPSGYILQAKEMQKDGGDNVWYKVKDGWLSANYTIDI	-0.198
HMNSEAVQNVIDKISALPDDITAKAKSQIEEARAAYEALSDSEKARVTNYSTLVAAEKKLASVVKD	0.325
HMHLTRYQYKVETEQEAVGLKELSSVHDLQIKENEATFQADSDAIDEILKTLLLYGVKKLEATPPTLED	-0.0366
HMDDVIDVYATYDVSPTNQISNIKLYSDAAHANPVTGEAGKSYNDITEGHPGYQFRWSGTTWVPI	-0.295

Sequence	soluble fraction (log2)
HMEGTEILVNIRKGMTKEEIASLLVSKGLVEDKNTFLVQTALYTSDRYPIQPGSYTLNTAQTPEEMLAVMT	0.0128
HMHQAVTVTKPARLFTGPDGKGVVRSLDVGMMLYPTGEKQGMMWEVEDELGNKGWVSSTLLELS	0.207
HMELNELTSRELMVAEQVARGASNREISEALSISERTVKAHLSAAFEKLGVRDRVQLALAMNNIPT	-0.0086
HMSVGDLLENLIRETRAQFSAPPESLGVAEKRRFVALLSQKGGFLLKGAVSRAASVLGVSEQTVYRYLKDS	-0.218
HMKQNRNLPVQIINNGKIIESVMTEFNLDIDWVYSEAKRLGYKNIKDIFYAGINRDGQFFIVPLF	-0.448
HMDNREKLRQEFLENLKELQEQNDIPQQEIDRVILDYDGVAEFLEDEGALKRYGGQLVDMTAYRAGAIPS	-0.0987
HMNAEGLIGREAVALTAVDAHGGRVRLGGEEWSARLSKENGGVSRLSVGDPVRVTDIDGAIAVVAP	0.187
HMTRAETPMAFIRAMVEAYTERGLDPNQALRKAQITPSQLKSTNARVTTLQMEWMSETAMREL	0.0088
HMLAAGTPLTVVTESSNLNIRQEPSTEAAVVGKAAKGEIVTLVEQTSGEWWKVSTKDGEEGYAYSRYL	0.341
HMTQLPEVPVERGMVLEEVQSGWVGAVTRVEKSGGMHVVALEDRRGKSRSFRLGFGFLLEGQPIRLMPPAP	-1.42
HMRIDVWLAENGFAPSRQKAQDLIAAGRVFQTDPSGRRQKVSKASAAVDPALSPKIEVIPDPE	0.161
HMEISLEAKMAEVREQVRGLAGINFRTLLEMQASRSNIIVTFLAILELMKIGAIQIRQEEIFGEIIIDSRD	-0.222
HMGRHSPLSIEQKEQLKTEIVALQQQRGGGRVTAVNIAELIQQKFNVVYNPNSLYKLLKQIGMSWV	-1.2
HMSLSIKINHESVGLRLDQFLQEHYYKQQSRSYVQHAIKEGYILVNGQSVKNGYMLKLDDLIELEAI	-1.59
HMDAYDEVTTLSQMVASGKNTTVAHLKHLKEYHQTDYLRQAVEWLLSNRKNVSFSVDEVMQEVHN	-0.0339
HMPKAMAIMSEIAGTVHIDDTKKSRHVEVTGVDDNGAPVTKSYLIPFGHRLKVMEGDVLVKGALLT	-0.0964
HMAPRKNIRLLRAAQDKAAAEGDHETVDAIRGQIAALIETLPVQYREEYLLQEKGRENGLKLAIENAAK	0.423
HMANTLDPMDLKQIISLHLDGFSNRKIGATLGISRNTVNTYMRLFSVSDYALKELLTLDNATLDKLFPS	-2.01
HMRLNIRTKNNYSYYTIIKDYTNLNGKRTTTIFEKLGNQQQVEERFGKVNTIENIKKYIEELNNE	-1.23
HMDIFFEKIFNILIGYNQNQENLISEKSILNFHLSHKSNSNFEYIPDEKTPKYIWKYLSNYNLLE	-0.359
HMSVPEDLYFRELEVEGNKVRISGIASTNNRVSALMRNFDQSEWFRDPSLIKVESKSPGVNEFEIVMTRI	0.0509
HMADLNQTDIDSITKSVGGVEQYKSLMDWAGKTLSQDAIDSFDDLVNTGNKGSIQLAVNGLVAQYQNDN	0.0325
HMSVYIGVDQAKSIAAEHAGLSNSAVTFSKAKLENDDGMTVYEVEFFYQGTEYDYKIDASTGSILEYDLDR	-1.26
HMRITEQRRTLAKLFADTPGYLSPKDVYDYMGRFYPGLSFDTVYRNLRLLDELGVLEQVVFEDGVKFK	-0.718
HMGRGSEDEQMRGLAVILAEQKQIMQTLGVENEVVKPEQYINTLKRMAELNGFKDTDQFFSIPQ	0.339

Sequence	soluble fraction (log2)
HMRRELDSEHKRQEILFAAKRLLLAEGYDATSMSRLAKEAGVAPNTLYWYFKDKDELLIAILDELVAE	-1.72
HMTVLIDEQSSDGLLKITVTANTAVKSITIADELLEDKEQLEDYLILVLNKAIARANQVNQTELDAVAK	0.317
HMSNFGALLRMRRLEAGLSYRGLAEQSGLARATLVNLEQGLTKPSPLTMRRLASVKALRLTEL	-2.26
HMEMDITIQMRTLVEELNRASDAYYNGRGELMTDYEWDAKFDQLKQLESQSGVVLPDSPTHRV	-0.162
HMTNKYSSLVIGTVKTIMEEDQYKNLMGPPLKKEIIKQVDKFTNALPIEFDQNDKDFYVKKILINL	-0.304
HMTIRPEDVELVPAEDGYMQGDVVSNIFKGVHYELEVKANGYDWMVHTTKYVEVGSHVGIKVIPFNIQV	-0.0208
HMQGVNLTETEKNFIAQVLSPLLKQGQSLYQIRTNHPEIKLSVKTLYTYIESGIFKESGINNFSLRRQ	0.0431
HMVPTATVGENTSTLPVRQLPGGPVLVVLVRGDIVLPLPGHAFQNGDVWREISTVNGVIGWVPDEFLDY	-1.9
HMDSNPLSEREQEVLQLVAKGASNQTIAEQLFLSNGTIRNYMTAIFNKLNANNRTDAVRIARENGW	-0.144
HMFAADIGVGIVDADSLRVRSEPSTGAPIVTSLLRGTQVTVQEKLDGWYRITYNDVSGFVSAEYLIFTADE	-0.241
HMIEGEQVRLLRLLERQEGGMLPLGDKSPASDILLLTGMSKKTFKMAVGALYKAQMITMTPTSIKLVK	-0.684
HMGKPTPASQVATRWLTGNLPESLPVAGPAPSFEALARTVSTDLHPRSVLQELVRLGVAEEANGVVTLRRQ	-0.00643
HMIVLPGEELEVHIVQEGKEDGQGVAYLDDGTMVVVEGGRPYVDSFAYVAVTRVLQTGAGRIIFAHPTR	-0.832
HMHHIDTAWFRGKMREHRLTQEAVGQAIGLERSMVSKIIKGTVSFNARKASAWAQLLRVSESEILERVGI	-2.37
HMFEYDEEEYEKLGPNADLTIKSMTDWGQSLVRKGVWSESDFEEFKIMGGTAQGLRALQKVRSYY	-0.451
HMKVEFDAMDKRILELMAKEYDTVLMARHLPLTPIVIDVRKKRIREVLNLPDATDAEIVIEAKEKDII	-0.322
HMPGVLEVDTGGVAAVAYVDGVEVGRVPGELQIAAGTKTLMLKADRYLDYVQSLEIDGLGKRQLLVATLQS	-0.25
HMGPVRDLGLLESAAHRPTTALWGRDVYATIEKKAAALLDSLVRDRPLADGNKRLGWLAALV	0.0437
HMFGELTPDTAKRFLLTAREQEMASLIAQGLTNKEIAFRLGISEATVRTHIYNLFQKVGVQSRIELLNVLH	-0.289
HMDGKTALQEIVASSGWSPPEYKVSESGPDHDKDFVAYAIVNGVAYPEGHGKSKREAEQVAARIAFEALSK	-0.18
HMKMPNGYGSITKLSGKRRKPWRVRKTAGWELDAKTQKLKQTYINIGYYETRADAMSALVSYNEDP	-0.898
HMSLEEQNGAKDRQVEAYELLLKAQRALDQEDTAGFQAAMKDLEPLSSQLDAQGQTLYHELLPFVS	-0.0812
HMTRYQHLAMLLEKRIAQGLYRNGERLPSVRSLSAEHGVSISTVQQAYYLLEQKQLIIPQSRSGYYVAPH	-4.42
HMERLSNQVYAILKEMIADYRFNPGARINVEQIAKEVGASRTPVWEAVHRLVQEGLLENIPNRGVFML	-1.41
HMIENITIELNKKALALDFELNKDLPEGVLETIPTLVSLMVRFDPLTVSYHFLRDYIDALLESNLNVDL	-0.0273
